Assay results: the RNAGym collection of RNA variant scans (doi:10.7554/elife.90254)

B1: LINE1-full (parent)
chain: UACGUAGGUGGUUUUCCCCUGAUAGUGCUAAGGGGGCCUGGAAGUUUGGACUGGGCAGAGCUCAACACAGCGUGGCAAAGUGGCUGUGGCUAGACUGCCUCUCUGGAUUCCUCGUCACUCAGCAGGGCAUCUCUGAGAGAAAUGCC
B2: OR4K15 (parent)
chain: GUUAACGGUCAUAGGCCAUGGAAACUAGGAGCACCAUUUCGCUGCCAGUGAAGAAAUGAACAAAGAAAAUCUGGGCCAGGCAGGCAUCAAAAGAAAUAGUCUUGCGCUCAACCAGAAAGUCUGUAAUCAUUUUAAGGGUA

Variants of: B1
Experiment: self-cleavage, relative activity (ratio to wild type); higher = more cleavage; in vitro, sequencing; the parent is a self-cleaving ribozyme

First: UAUGUAGGUGGUUUUCCCCUGAUAGUGCUAAGGGGGCCUGGAAGUUUGGACUGGGCAGAGCUCAACACAGCGUGGCAAAGUGGCUGUGGCUAGACUGCCUCUCUGGAUUCUUCGUCACUCAGCAGGGCAUCUCUGAGAGAAAUGCC [C3U C111U]
Second: UACGUAGGUGGUUUUCCCCUGAUAGUGCUAAGGGGGCCUGGAAGCUUGGACUGGGCAGAGCUCAACACAGCGUGGCAAACUGGCUGUGGCUAGACUGCCUCUCUGGAUUCCUCGUCACUCAGCAGGGCAUCUCUGAGAGAAAUGCC [U45C G80C]
The self-cleavage of the first is lower: 0.65 for the first, 1.8 for the second.

Compared with UACGUAGGUGGUUUCCCCCUGAUAGUGCUAAGGGGGCCUGGAAGUUUGGACUGGGCAGAGCGCAACACAGCGUGGCAAAGUGGCUGUGGCUAGACUGCCUCUCUGGAUUCCUCGUCACUCAGCAGGGCAUCUCUGAGAGAAAUGCC [U15C U62G], UACGUAGGUGGUUUUCCCCUGAUUGUGCUAAGGGGGCCUGGAAGUUUGGACUGGGCAGAGCUCAACACAGCGUGGCAAAGUGGCUGUGGCUAGACUGCCUCCCUGGAUUCCUCGUCACUCAGCAGGGCAUCUCUGAGAGAAAUGCC [A24U U102C] is higher in self-cleavage: 0.15 for the first, 1.09 for the second.

Compared with UACGUAGGUGGUUUUCCCCUGAUAGUGCUAAGGGGGCCUGGAAGUUUGGACUGGGCAGAGCUAAACACAGCGUGGCAAAGUGGCUGUGGCUAGACUGCCUCUCUGGAUUCCUCGUCACUCAGCAGGGCUUCUCUGAGAGAAAUGCC [C63A A129U], UACGUAGGUGGUUUUCCCCUGAUAGUGCUAAGGGGGCCUGGAAGUUUGGACUGGGCAGAUCUCAACACAGCGUGGCAAAGUGGCUGUGGCCAGACUGCCUCUCUGGAUUCCUCGUCACUCAGCAGGGCAUCUCUGAGAGAAAUGCC [G60U U91C] is lower in self-cleavage: 0.06 for the first, 0.01 for the second.

Going from UGCGUAGGUGGUUUUCCCCUGAUAGUGCUGAGGGGGCCUGGAAGUUUGGACUGGGCAGAGCUCAACACAGCGUGGCAAAGUGGCUGUGGCUAGACUGCCUCUCUGGAUUCCUCGUCACUCAGCAGGGCAUCUCUGAGAGAAAUGCC [A2G A30G] to UACGUAAGUGGUUUUCCCCUGAUAGUGCUAAGGGGGCCUGGAAGUUUGGACUGGGCAGAGCUCAACACAGCGUGGCAGAGUGGCUGUGGCUAGACUGCCUCUCUGGAUUCCUCGUCACUCAGCAGGGCAUCUCUGAGAGAAAUGCC [G7A A78G], the self-cleavage rises from 0.87 to 1.12.

Going from UACGUAGGUGGUUUUCCCUUGAUAGUGCUAAGGGGGCCUGGAAGUUUGGACUGGGCAGAGCUCAACACAGCGUGGCAAAGUGGCUGUGGCUAGACUGCCUCUCUGGAUUCCUCGUCACUCAGCAGGGCAUCUCUGAGAGAUAUGCC [C19U A141U] to UACGUAGGUGGUUUUCCCCAGAUAGUGCUAAGGGGGCCUGGAAGUUUGGACUGGGCAGAGCUCAACACAGCGUGGCAAAGUGGCUGUGGCUAGACUGCCUCUCUGGAUUCCUCGUCACUCAGCAGAGCAUCUCUGAGAGAAAUGCC [U20A G126A], the self-cleavage rises from 1 to 1.28.

Going from UACGUAGGUGGUUUUCCCCUGAUAGAGCUAAGGGGGCCUGGAAGUUUGGACUGGGCAGAGCUCAACACAGCGUGGCAAAGUGGCUGUGGCUAGACUGCCUCUCUGGUUUCCUCGUCACUCAGCAGGGCAUCUCUGAGAGAAAUGCC [U26A A107U] to UACGUAGGUGGUUUUCCCCUGAUAGUGCUAAGGGGGCCUGGAAGUUUGGACUGGGCAGAGCUCAACACAGCGUGGCAAAGUGGCUGUGGCUAGACCGCCUCUCUGGAUUCCUCGUCACUCAGCGGGGCAUCUCUGAGAGAAAUGCC [U96C A124G], the self-cleavage falls from 1.09 to 0.06.

First: UACGUAGGUGGUUUUCCCCUGAUAGUGCUAAGGGGGCCUGGAAGUUUGGCCUGGGCAGAGCUCAACGCAGCGUGGCAAAGUGGCUGUGGCUAGACUGCCUCUCUGGAUUCCUCGUCACUCAGCAGGGCAUCUCUGAGAGAAAUGCC [A50C A67G]
Second: UACGUAGGUGGUUUUCCUCUGAUAGUGCUAAGGGGGCCUGGAGGUUUGGACUGGGCAGAGCUCAACACAGCGUGGCAAAGUGGCUGUGGCUAGACUGCCUCUCUGGAUUCCUCGUCACUCAGCAGGGCAUCUCUGAGAGAAAUGCC [C18U A43G]
The self-cleavage of the first is lower: 0.62 for the first, 2.02 for the second.

First: UACGUAGGUGGUUUUCCCCUGAUAGUGCUAAGGGGGCCCGGAAGUUUGGACUGGGCAGAGCUCAACACAGCGUGACAAAGUGGCUGUGGCUAGACUGCCUCUCUGGAUUCCUCGUCACUCAGCAGGGCAUCUCUGAGAGAAAUGCC [U39C G75A]
Second: UACGUAGGUGGUUUUCCCCUGAUAGUGCUAAGGGGGCCUGGAAGUUUGGACUGGGCAGAGCUCAACACAGCGUGGCAAAGUGGCUGUGGCUAGACUGCCUCUCUGGAUUCCUCGUCACUCAGCAGGGCAUCUCUGAGAGAUGUGCC [A141U A142G]
The self-cleavage of the first is lower: 0.83 for the first, 1.79 for the second.

Variants of: B2
Experiment: as above

Going from UUUAACGGUCAUAGGCCAUGGAAACUAGGAGCACCAUUUCGCUGCCAGUGAAGAAAUGAACAAAGAAAAUCUGGGCCAGGCAGGCAUCAAAAGGAAUAGUCUUGCGCUCAACCAGAAAGUCUGUAAUCAUUUUAAGGGUA [G1U A94G] to AUUAACGGUCAUAGGCCAUGGAAACUAGGAGCACCAUUUCGCUGCCAGUGAAGAAAUGAACAAAGAAAAUCUGGGCCAGGCAGGCAUCAAAAGAAAUAGUCUUGCGCUCAACCUGAAAGUCUGUAAUCAUUUUAAGGGUA [G1A A114U], the self-cleavage falls from 0.76 to 0.26.

First: AUUAACGGUCAUAGGCCAUGGAAACUAGGAGCACCAUUUCGCUGCCAGUGAAGAAAUGAACAAAGAAAAUCUGGGCCAGGCAGGCAUCAAAAGAAAUAGUCUUGCGCUCAACCGGAAAGUCUGUAAUCAUUUUAAGGGUA [G1A A114G]
Second: UUUAACGGUCAUAGGCCAUGGAAACUAGGAGCACCAUUUCGCUGCCAGUGAGGAAAUGAACAAAGAAAAUCUGGGCCAGGCAGGCAUCAAAAGAAAUAGUCUUGCGCUCAACCAGAAAGUCUGUAAUCAUUUUAAGGGUA [G1U A52G]
The self-cleavage of the first is lower: 1.32 for the first, 1.83 for the second.

Compared with UUUAACGGUCAUAGGCCAUGGAAACUAGGAGCACCAUUUCGCUGCCAGUGAAGAAAUGAACAGAGAAAAUCUGGGCCAGGCAGGCAUCAAAAGAAAUAGUCUUGCGCUCAACCAGAAAGUCUGUAAUCAUUUUAAGGGUA [G1U A63G], GAUAACGGUCAUAGGCCUUGGAAACUAGGAGCACCAUUUCGCUGCCAGUGAAGAAAUGAACAAAGAAAAUCUGGGCCAGGCAGGCAUCAAAAGAAAUAGUCUUGCGCUCAACCAGAAAGUCUGUAAUCAUUUUAAGGGUA [U2A A18U] is higher in self-cleavage: 0.92 for the first, 1.37 for the second.

Going from AUUAACGGUCAUAGGCCAUGGAAACUAGGAGCACCACUUCGCUGCCAGUGAAGAAAUGAACAAAGAAAAUCUGGGCCAGGCAGGCAUCAAAAGAAAUAGUCUUGCGCUCAACCAGAAAGUCUGUAAUCAUUUUAAGGGUA [G1A U37C] to UUUAACGGUCAUAGGCCAUGGAAACUAGGAGCACCAUUUCGCUGCCAGUGAAGAAAUGAACAAAGAAAAUCUGGGCCAGGCAGGCAUCAAAGGAAAUAGUCUUGCGCUCAACCAGAAAGUCUGUAAUCAUUUUAAGGGUA [G1U A92G], the self-cleavage rises from 1.61 to 1.91.

Going from AUUAACGGUCAUAGGCCAUGGAAACUAGGAGCACCAUUUCGCUGCCAGUGAAGAAAUGGACAAAGAAAAUCUGGGCCAGGCAGGCAUCAAAAGAAAUAGUCUUGCGCUCAACCAGAAAGUCUGUAAUCAUUUUAAGGGUA [G1A A59G] to CUUAACGGUCAUAGGCCAUGGAAACUAGGAGCACCAUUUCGCUGCCAGUGAAGAAAUGAACAAAGAAAAUCUGGGCCAGGCAGGCAUCAAAAGAAAUAGUCUUGCGCUCAACCAGAAAGUCUGUAAUCAUUUUAGGGGUA [G1C A135G], the self-cleavage rises from 1.36 to 1.85.

Going from CUUAACGGUCAUAGGCCAUGGAAACUAGGAGCACCAUUUCGCUGCCAGUGAAGAAAUGAACAAAGAAAAUCUGGGCCAGGCAGGCAUCAAGAGAAAUAGUCUUGCGCUCAACCAGAAAGUCUGUAAUCAUUUUAAGGGUA [G1C A91G] to AUUAACGGUCAUAGGCCAUGGAAACUAGGAGCACCAUUUCGCUGCCAGUGAAGAAAUGAACAAAGAAAAUCUGGGCCAGGCAGGCAUCAAAAGAAAUAGUCGUGCGCUCAACCAGAAAGUCUGUAAUCAUUUUAAGGGUA [G1A U102G], the self-cleavage rises from 0.65 to 1.23.

Compared with UUUAACGGUCAUAGGCCAUGGAAACUAGGAGCACCAUUUCGCUGCCAGUGAAGAAAUGAACAAAGAAAAUCUGGGCCAGGCAGGCAUCAAAAGAAAUAGUCUUGCGCUCAACCAGAAAGUCUGUAAUCAUUUUAAGGGUA [G1U], AUUAACGGUCAUAGGCCAUGGAAACUAGGAGCACCAUUUCGCUGCCAGUGAAGAAAUGAACAAAGAAAAUCUGGGCCAGGCAGGCAUCAAAAGAAAUAGUCUUGCGCUCAACCAGAAAGUCUGUAAUCAUUUUAAGGGUA [G1A] is higher in self-cleavage: 1.07 for the first, 1.55 for the second.

Compared with UUUAACGGUCAUAGGCCAUGGAAACUAGGAGCACCAUUUCGCUGCCAGUGAAGAAAUGAACAAAGAAAAUCUGGGCCAGGCAGGCAUCAAAAGAAAUAGUCUUGCGCUCAACCAGAAAGUCUGUAAUCAUUUUAAGGGCA [G1U U139C], UUUAACGGUCAUAGGCCAUGGAAACUAGGAGCACCAUUUCGCUGCCAGUGAAGAAAUGAACAAAGAAAUUCUGGGCCAGGCAGGCAUCAAAAGAAAUAGUCUUGCGCUCAACCAGAAAGUCUGUAAUCAUUUUAAGGGUA [G1U A69U] is higher in self-cleavage: 0.98 for the first, 1.22 for the second.

First: CUUAACGGUCAUAGGCCAUGGAAACUAGGAGCACCAUUUCGCUGCCAGUGAAGAAAUGAACAAAGAAAAUCUGGGCCAGGCAGGCAUCAAAAGAAAUAGUCUUGCGCUCAGCCAGAAAGUCUGUAAUCAUUUUAAGGGUA [G1C A111G]
Second: UUUAACGGUCAUAGGCCAUGGAAACUAGGAGCACCAUUUCGCUGCCAGUGAAGAAAUGAACAAAGAAAAUCUGGGCCAGGCAGGCAUCAAAAGAGAUAGUCUUGCGCUCAACCAGAAAGUCUGUAAUCAUUUUAAGGGUA [G1U A95G]
The self-cleavage of the first is lower: 0.01 for the first, 0.56 for the second.

Compared with AUUAACGGUCAUAGGCCAUGGAAACUAGGAGCACCAUUUCGCCGCCAGUGAAGAAAUGAACAAAGAAAAUCUGGGCCAGGCAGGCAUCAAAAGAAAUAGUCUUGCGCUCAACCAGAAAGUCUGUAAUCAUUUUAAGGGUA [G1A U43C], GAUAACGGUCAUAGGCCAUGGGAACUAGGAGCACCAUUUCGCUGCCAGUGAAGAAAUGAACAAAGAAAAUCUGGGCCAGGCAGGCAUCAAAAGAAAUAGUCUUGCGCUCAACCAGAAAGUCUGUAAUCAUUUUAAGGGUA [U2A A22G] is lower in self-cleavage: 2.15 for the first, 1.33 for the second.

First: AUUAACGGUCAUGGGCCAUGGAAACUAGGAGCACCAUUUCGCUGCCAGUGAAGAAAUGAACAAAGAAAAUCUGGGCCAGGCAGGCAUCAAAAGAAAUAGUCUUGCGCUCAACCAGAAAGUCUGUAAUCAUUUUAAGGGUA [G1A A13G]
Second: AUUAACGGUCAUCGGCCAUGGAAACUAGGAGCACCAUUUCGCUGCCAGUGAAGAAAUGAACAAAGAAAAUCUGGGCCAGGCAGGCAUCAAAAGAAAUAGUCUUGCGCUCAACCAGAAAGUCUGUAAUCAUUUUAAGGGUA [G1A A13C]
The self-cleavage of the first is lower: 1.29 for the first, 1.66 for the second.

First: AUUAACGGUCAUAGGCCAUGGAAACUAGGAGCACCAUUUCGCUGCCAGUGAAGAAAUGAACAAGGAAAAUCUGGGCCAGGCAGGCAUCAAAAGAAAUAGUCUUGCGCUCAACCAGAAAGUCUGUAAUCAUUUUAAGGGUA [G1A A64G]
Second: UUUAACGGUCAUAGGCCAUGGAAACUAGGAGCACCAUUUCGCUGCCAGUGAAGGAAUGAACAAAGAAAAUCUGGGCCAGGCAGGCAUCAAAAGAAAUAGUCUUGCGCUCAACCAGAAAGUCUGUAAUCAUUUUAAGGGUA [G1U A54G]
The self-cleavage of the first is higher: 2.27 for the first, 1.44 for the second.
